Tests used:
GST-AtSPX1 = target: T1, GST-AtSPX1 (Arabidopsis thaliana, UniProt Q8LBH4 1-256); assay: SPR; ~1000 nM GST-AtSPX1 after buffer, with or without 5 mM Pi; low near-baseline signal taken as non-specific; SPR (Biacore 3000, SA chip, ~500 RU DNA): 10 mM HEPES pH 7.5, 200 mM NaCl, 0.01% Surfactant P-20, 25 C, 40 ul/min, with or without Pi/InsP6; details: protein: recombinant; tags: N-terminal GST (pGEX-2T); label: 5'-biotin on strand 1; blunt
T1 sequence: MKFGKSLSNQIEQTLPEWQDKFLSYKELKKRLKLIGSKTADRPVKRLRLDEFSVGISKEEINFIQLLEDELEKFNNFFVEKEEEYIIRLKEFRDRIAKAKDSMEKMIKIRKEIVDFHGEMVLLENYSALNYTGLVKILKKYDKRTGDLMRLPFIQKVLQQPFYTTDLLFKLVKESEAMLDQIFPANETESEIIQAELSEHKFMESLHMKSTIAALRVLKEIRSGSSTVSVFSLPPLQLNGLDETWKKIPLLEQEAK

MBP-AtdPHR1 = MBP-AtdPHR1 (Arabidopsis thaliana, UniProt Q94CL7 208-362); assay: SPR; 1:1 fit at 2.5 nM protein, n = 3; ka 3.5e4 M-1 s-1, kd 0.00049 s-1; SPR (Biacore 3000, SA chip, ~500 RU DNA): 10 mM HEPES pH 7.5, 200 mM NaCl, 0.01% Surfactant P-20, 25 C, 40 ul/min, with or without Pi/InsP6; details: protein: recombinant; tags: N-terminal MBP (pMAL-c2x); chain copies: 2; label: 5'-biotin on strand 1; blunt
Sequence of MBP-AtdPHR1 (Q94CL7 208-362): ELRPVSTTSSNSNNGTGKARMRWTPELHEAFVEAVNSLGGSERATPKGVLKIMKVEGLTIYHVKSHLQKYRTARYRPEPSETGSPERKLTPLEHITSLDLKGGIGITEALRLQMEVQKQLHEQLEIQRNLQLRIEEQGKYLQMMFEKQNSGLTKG

B1: 2x P1BS probe (dsDNA)
DNA 1: CAGAGAAAAAAGGATATTCTAATTAGAAACCTTAAGAATATTCTTTTTAATCCC
DNA 2: GGGATTAAAAAGAATATTCTTAAGGTTTCTAATTAGAATATCCTTTTTTCTCTG
In the case of B1, the binding result (GST-AtSPX1) is reported as “no binding” and the Kd (MBP-AtdPHR1) is reported as 14 ± 2.4 nM.
